Measured values taken from patent US20230091510A1, “ANTIBODY DRUG CONJUGATES HAVING LINKERS COMPRISING HYDROPHILIC GROUPS” (priority 2019, published 2023).
Where a SMILES comes first, the peptide text is derived from it. [ ]: non-standard residue; d: D form. The star is where a group is joined. Dolaproine = CO[C@@H]([C@@H]1CCCN1)[C@@H](C)C(=O)O; Dil = CC[C@H](C)[C@H](NC)[C@@H](CC(=O)O)OC; X1 = C[C@@H](N*)[C@@H](O)c1ccccc1; NMeV = CN[C@H](C(=O)O)C(C)C

How the values were obtained:
HT-29 cells = assay: CellTiter-Glo inhibition of cell proliferation and survival, HT-29; assay type: cell-based, human; details: HT-29 cell line
Description: (§1) The antibody drug conjugates were tested against four endogenous cancer cell lines and one isogenic cell line engineered to overexpress the target of interest. FaDu (ATCC No. HTB-43 cultured in Eagle's Minimum Essential Medium+10% FBS), HCC70 (ATCC No. CRL-2315 cultured in RPMI-1640+10% FBS), HCC1954 (ATCC No. CRL-2338 cultured in RPMI-1640+10% FBS) and HT-29 (ATCC No. HTB-38 cultured in McCoy's 5a Medium Modified+10% FBS). The HT-29 cell line was transfected to generate a stable HT-29 cell line expressing the exogenous protein of interest, P-cadherin, HT-29 PCAD+(cultured in McCoy's 5a Medium Modified+10% FBS).
(§2) The ability of the P-cadherin linker variant antibody drug conjugates to inhibit cell proliferation and survival was assessed using the Promega CellTiter-Glo® proliferation assay.
(§3) The cell lines were cultured in media that is optimal for their growth at 5% CO2, 37° C. in a tissue culture incubator. […] Cell viability and cell density were determined using a cell counter (Vi-Cell XR Cell Viability Analyzer, Beckman Coulter). […] Plates were incubated at 5% CO2, 37° C. for 5 days in a tissue culture incubator, after which cell viability was assessed through the addition of 25 μL of CellTiter Glo® (Promega, cat #G7573), a reagent which lyses cells and measures total adenosine triphosphate (ATP) content. […]

HCC70 cells = assay: CellTiter-Glo inhibition of cell proliferation and survival, HCC70; assay type: cell-based, human; details: HCC-70 cell line
Description: as §1, §2, §3

FaDu cells = assay: CellTiter-Glo inhibition of cell proliferation and survival, FaDu; assay type: cell-based, human; details: FaDu cell line
Description: as §1, §2, §3

HCC1954 cells = assay: CellTiter-Glo inhibition of cell proliferation and survival, HCC1954; assay type: cell-based, human; details: HCC-1954 cell line
Description: as §1, §2, §3

[1] = target: P-cadherin, endogenous, on HCC70 human triple negative breast cancer cells (human, UniProt P22223 108-829); assay: cell-based or functional assay
[2] = target: P-cadherin, exogenous, stably expressed on HT-29 PCAD+ cells (UniProt P22223 108-829, limits assumed); assay: cell-based or functional assay
[3] = value from an individual representative assay

Chain of P-cadherin, endogenous, on HCC70 human triple negative breast cancer cells (P22223 108-829): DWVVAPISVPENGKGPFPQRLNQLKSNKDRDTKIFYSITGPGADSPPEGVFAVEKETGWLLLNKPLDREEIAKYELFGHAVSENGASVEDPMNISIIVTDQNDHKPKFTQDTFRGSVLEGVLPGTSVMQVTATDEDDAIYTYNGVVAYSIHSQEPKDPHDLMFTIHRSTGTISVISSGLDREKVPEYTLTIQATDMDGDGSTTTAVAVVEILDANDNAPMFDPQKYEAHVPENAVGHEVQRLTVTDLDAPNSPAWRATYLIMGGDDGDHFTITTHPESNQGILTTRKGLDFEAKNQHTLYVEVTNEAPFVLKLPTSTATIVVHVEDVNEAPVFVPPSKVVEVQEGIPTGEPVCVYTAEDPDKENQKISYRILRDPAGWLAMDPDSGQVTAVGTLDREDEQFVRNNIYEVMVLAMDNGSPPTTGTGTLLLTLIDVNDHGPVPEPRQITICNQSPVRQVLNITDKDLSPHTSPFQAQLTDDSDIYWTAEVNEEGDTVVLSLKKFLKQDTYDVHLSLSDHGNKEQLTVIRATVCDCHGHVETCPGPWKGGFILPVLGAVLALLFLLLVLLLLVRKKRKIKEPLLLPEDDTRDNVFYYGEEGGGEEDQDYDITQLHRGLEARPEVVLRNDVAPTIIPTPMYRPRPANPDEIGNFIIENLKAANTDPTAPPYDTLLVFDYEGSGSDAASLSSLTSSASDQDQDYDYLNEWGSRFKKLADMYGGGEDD
Chain of P-cadherin, exogenous, stably expressed on HT-29 PCAD+ cells (P22223 108-829 limits assumed): as the sequence (P22223 108-829) above

Molecule | Amax (HT-29 cells) | IC50 (HT-29 cells; [3]) [nM] | Amax (HCC70 cells) | IC50 (HCC70 cells; [3]) [nM] | Amax (FaDu cells) | IC50 (FaDu cells; [3]) [nM] | Amax (HCC1954 cells) | IC50 (HCC1954 cells; [3]) [nM] | Amax, inhibition of cell proliferation and survival (CellTiter-Glo, 5 days), HCC70 cells [1] | IC50 (nM), inhibition of cell proliferation and survival (CellTiter-Glo, 5 days), HCC70 cells [1] [nM] | Amax, inhibition of cell proliferation and survival (CellTiter-Glo, 5 days), HT-29 PCAD+ cells [2] | IC50 (nM), inhibition of cell proliferation and survival (CellTiter-Glo, 5 days), HT-29 PCAD+ cells [2] [nM]
CC[C@H](C)[C@@H]([C@@H](CC(=O)N1CCC[C@H]1[C@H](OC)[C@@H](C)C(=O)N[C@H](C)[C@@H](O)c1ccccc1)OC)N(C)C(=O)[C@@H](NC(=O)[C@@H](NC)C(C)C)C(C)C [Free MMAE, monomethyl auristatin E, reference compound] (H-[NMeV]V[Dil][Dolaproine]-X1) | 102.30 | 0.012 | 49.22 | 0.022 | 108.80 | 0.032 | 65.26 | 0.056 | – | – | – | –
P-Cad mab2-L1-P1 (antibody, V domains shown, maleimide linker-drug L1-P1 on engineered Cys residues of the constant regions (positions not stated), DAR 3.8) VH: QVQLQQSGPGLVKPSQTLSLTCAISGDSVSSQSAAWNWIRQSPSRGLEWLGRIYYRSKWYNDYALSVKSRITINPDTSKNQFSLQLNSVTPEDTAVYYCARGEGYGREGFAIWGQGTLVTVSS VL: DIQMTQSPSSLSASVGDRVTITCRASQTISNTLAWYQQKPGKAPKLLIYAASNLQSGVPSRFSGSGSGTDFTLTISSLQPEDFATYYCQQYLSWFTFGQGTKVEIK | – | – | – | – | – | – | – | – | 65.1 | 0.237 | 90 | 0.077
P-Cad mab2-L4-P1 (antibody, V domains shown, maleimide linker-drug L4-P1 on engineered Cys residues of the constant regions (positions not stated), DAR 3.9) VH: QVQLQQSGPGLVKPSQTLSLTCAISGDSVSSQSAAWNWIRQSPSRGLEWLGRIYYRSKWYNDYALSVKSRITINPDTSKNQFSLQLNSVTPEDTAVYYCARGEGYGREGFAIWGQGTLVTVSS VL: DIQMTQSPSSLSASVGDRVTITCRASQTISNTLAWYQQKPGKAPKLLIYAASNLQSGVPSRFSGSGSGTDFTLTISSLQPEDFATYYCQQYLSWFTFGQGTKVEIK | – | – | – | – | – | – | – | – | 57.2 | 0.467 | 86.2 | 0.117
P-Cad mab2-L2-P1 (antibody, V domains shown, maleimide linker-drug L2-P1 on engineered Cys residues of the constant regions (positions not stated), DAR 3.9) VH: QVQLQQSGPGLVKPSQTLSLTCAISGDSVSSQSAAWNWIRQSPSRGLEWLGRIYYRSKWYNDYALSVKSRITINPDTSKNQFSLQLNSVTPEDTAVYYCARGEGYGREGFAIWGQGTLVTVSS VL: DIQMTQSPSSLSASVGDRVTITCRASQTISNTLAWYQQKPGKAPKLLIYAASNLQSGVPSRFSGSGSGTDFTLTISSLQPEDFATYYCQQYLSWFTFGQGTKVEIK | – | – | – | – | – | – | – | – | 51 | 0.336 | 83.9 | 0.098
PCAD-mab2-L7-P2 (antibody, V domains shown, linker-drug L7-P2 (structure and conjugation not described in the filing)) VH: QVQLQQSGPGLVKPSQTLSLTCAISGDSVSSQSAAWNWIRQSPSRGLEWLGRIYYRSKWYNDYALSVKSRITINPDTSKNQFSLQLNSVTPEDTAVYYCARGEGYGREGFAIWGQGTLVTVSS VL: DIQMTQSPSSLSASVGDRVTITCRASQTISNTLAWYQQKPGKAPKLLIYAASNLQSGVPSRFSGSGSGTDFTLTISSLQPEDFATYYCQQYLSWFTFGQGTKVEIK | – | – | – | – | – | – | – | – | 171 | 0.004 | – | –
P-Cad mab2-L3-P1 (antibody, V domains shown, maleimide linker-drug L3-P1 on engineered Cys residues of the constant regions (positions not stated), DAR 4.0) VH: QVQLQQSGPGLVKPSQTLSLTCAISGDSVSSQSAAWNWIRQSPSRGLEWLGRIYYRSKWYNDYALSVKSRITINPDTSKNQFSLQLNSVTPEDTAVYYCARGEGYGREGFAIWGQGTLVTVSS VL: DIQMTQSPSSLSASVGDRVTITCRASQTISNTLAWYQQKPGKAPKLLIYAASNLQSGVPSRFSGSGSGTDFTLTISSLQPEDFATYYCQQYLSWFTFGQGTKVEIK | – | – | – | – | – | – | – | – | 105 | 1.35 | 86.8 | 0.083
P-Cad mab2-L6-P1 (antibody, V domains shown, maleimide linker-drug L6-P1 on engineered Cys residues of the constant regions (positions not stated), DAR 3.8) VH: QVQLQQSGPGLVKPSQTLSLTCAISGDSVSSQSAAWNWIRQSPSRGLEWLGRIYYRSKWYNDYALSVKSRITINPDTSKNQFSLQLNSVTPEDTAVYYCARGEGYGREGFAIWGQGTLVTVSS VL: DIQMTQSPSSLSASVGDRVTITCRASQTISNTLAWYQQKPGKAPKLLIYAASNLQSGVPSRFSGSGSGTDFTLTISSLQPEDFATYYCQQYLSWFTFGQGTKVEIK | – | – | – | – | – | – | – | – | 80.2 | 0.209 | 102 | 0.069
P-Cad mab2-L5-P1 (antibody, V domains shown, maleimide linker-drug L5-P1 on engineered Cys residues of the constant regions (positions not stated), DAR 3.7) VH: QVQLQQSGPGLVKPSQTLSLTCAISGDSVSSQSAAWNWIRQSPSRGLEWLGRIYYRSKWYNDYALSVKSRITINPDTSKNQFSLQLNSVTPEDTAVYYCARGEGYGREGFAIWGQGTLVTVSS VL: DIQMTQSPSSLSASVGDRVTITCRASQTISNTLAWYQQKPGKAPKLLIYAASNLQSGVPSRFSGSGSGTDFTLTISSLQPEDFATYYCQQYLSWFTFGQGTKVEIK | – | – | – | – | – | – | – | – | 65.9 | 0.32 | 91.6 | 0.075
